Laboratory results published in US20200237923A1.

Target: TNFR1 on L929 cells (UniProt P25118)
Assay: cell-based or functional assay

Sequence of UniProt P25118 (P25118 30-454 limits assumed): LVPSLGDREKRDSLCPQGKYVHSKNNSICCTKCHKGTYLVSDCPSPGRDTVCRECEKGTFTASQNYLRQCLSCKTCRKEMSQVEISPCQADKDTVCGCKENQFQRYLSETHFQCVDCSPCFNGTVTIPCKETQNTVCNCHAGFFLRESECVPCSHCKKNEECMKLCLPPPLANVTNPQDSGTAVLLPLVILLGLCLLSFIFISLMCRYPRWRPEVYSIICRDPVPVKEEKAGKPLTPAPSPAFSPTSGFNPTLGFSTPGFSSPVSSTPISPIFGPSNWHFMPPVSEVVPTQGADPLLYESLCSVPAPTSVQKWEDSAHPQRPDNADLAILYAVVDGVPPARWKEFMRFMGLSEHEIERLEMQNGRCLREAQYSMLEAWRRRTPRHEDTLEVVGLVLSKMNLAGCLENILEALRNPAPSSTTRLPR

randomly PEGylated scTNF-α (direct conjugation with PEG NHS ester) (ligand)
EC50 of cytotoxic activity against L929 cells: 0.0046 ng/mL
loss of activity against unmodified scTNF-α (L929 cytotoxicity): 10 fold

citraconylated scTNF-α (lysine side chains globally blocked with citraconic anhydride) (ligand)
EC50 of cytotoxic activity against L929 cells: 0.0076 ng/mL

unmodified single-chain TNF-α (scTNF-α), His tag cleaved (ligand)
EC50 of cytotoxic activity against L929 cells: 0.00035 ng/mL

PRINT PEG5K scTNF-α (N-terminally mono-PEGylated with PEG-5000) (ligand)
EC50 of cytotoxic activity against L929 cells: 0.00058 ng/mL

PRINT PEG20K scTNF-α (N-terminally PEGylated with PEG-20000) (ligand)
EC50 of cytotoxic activity against L929 cells: 0.00062 ng/mL
